Results reported in article PMC11886768 (2025).

B1: GFP-CRY1 (N. benthamiana) [Arabidopsis] / cLUC-COP1 [Arabidopsis] (parent)
chain 1: MSGSVSGCGSGGCSIVWFRRDLRVEDNPALAAAVRAGPVIALFVWAPEEEGHYHPGRVSRWWLKNSLAQLDSSLRSLGTCLITKRSTDSVASLLDVVKSTGASQIFFNHLYDPLSLVRDHRAKDVLTAQGIAVRSFNADLLYEPWEVTDELGRPFSMFAAFWERCLSMPYDPESPLLPPKKIISGDVSKCVADPLVFEDDSEKGSNALLARAWSPGWSNGDKALTTFINGPLLEYSKNRRKADSATTSFLSPHLHFGEVSVRKVFHLVRIKQVAWANEGNEAGEESVNLFLKSIGLREYSRYISFNHPYSHERPLLGHLKFFPWAVDENYFKAWRQGRTGYPLVDAGMRELWATGWLHDRIRVVVSSFFVKVLQLPWRWGMKYFWDTLLDADLESDALGWQYITGTLPDSREFDRIDNPQFEGYKFDPNGEYVRRWLPELSRLPTDWIHHPWNAPESVLQAAGIELGSNYPLPIVGLDEAKARLHEALSQMWQLEAASRAAIENGSEEGLGDSAEVEEAPIEFPRDITMEETEPTRLNPNRRYEDQMVPSITSSLIRPEEDEESSLNLRNSVGDSRAEVPRNMVNTNQAQQRRAEPASNQVTAMIPEFNIRIVAESTEDSTAESSSSGRRERSGGIVPEWSPGYSEQFPSEENGIGGGSTTSSYLQNHHEILNWRRLSQTG
chain 2: MEEISTDPVVPAVKPDPRTSSVGEGANRHENDDGGSGGSEIGAPDLDKDLLCPICMQIIKDAFLTACGHSFCYMCIITHLRNKSDCPCCSQHLTNNQLYPNFLLDKLLKKTSARHVSKTASPLDQFREALQRGCDVSIKEVDNLLTLLAERKRKMEQEEAERNMQILLDFLHCLRKQKVDELNEVQTDLQYIKEDINAVERHRIDLYRARDRYSVKLRMLGDDPSTRNAWPHEKNQIGFNSNSLSIRGGNFVGNYQNKKVEGKAQGSSHGLPKKDALSGSDSQSLNQSTVSMARKKRIHAQFNDLQECYLQKRRQLADQPNSKQENDKSVVRREGYSNGLADFQSVLTTFTRYSRLRVIAEIRHGDIFHSANIVSSIEFDRDDELFATAGVSRCIKVFDFSSVVNEPADMQCPIVEMSTRSKLSCLSWNKHEKNHIASSDYEGIVTVWDVTTRQSLMEYEEHEKRAWSVDFSRTEPSMLVSGSDDCKVKVWCTRQEASVINIDMKANICCVKYNPGSSNYIAVGSADHHIHYYDLRNISQPLHVFSGHKKAVSYVKFLSNNELASASTDSTLRLWDVKDNLPVRTFRGHTNEKNFVGLTVNSEYLACGSETNEVYVYHKEITRPVTSHRFGSPDMDDAEEEAGSYFISAVCWKSDSPTMLTANSQGTIKVLVLAA

Variants of: B1
Experiment: luciferase complementation imaging (LCI) competition assay (cLUC-COP1 + HY5-nLUC)
Details: with cLUC-COP1 [Arabidopsis]; transfected N. benthamiana leaves, n = 22, CCD camera; value is the mean ('+'), median about 0.95; GFP-NLS-GUS control = 1; higher signal = less displacement …; parent: 0.6; read off a plot

screen value	Variant
1.1	chain 1 V548A P549A

Variants of: B1
Experiment: mammalian three-hybrid (M3H) competition assay (displacement of HY5-VP16 from E-COP1)
Details: with E-COP1 [Arabidopsis]; CHO-K1 cells, blue light (10 μmol m−2 s−1), 24 h; higher signal = less displacement of HY5 by the CRY1 variant; GFP control est. 150; parent: 30; read off a plot

screen value (Au (SEAP/sNLuc))	Variant
150	chain 1 V548A P549A

Same assay, conditions: with E-COP1 [Arabidopsis]; CHO-K1 cells, darkness, 24 h; higher signal = less displacement of HY5 by the CRY1 variant; GFP control est. 150; parent: 76; read off a plot

screen value (Au (SEAP/sNLuc))	Variant
130	chain 1 V548A P549A
